Reference: patent publication US20110059095A1 (Regeneron, published 2011)
Where no end group is shown, it is not given here. The star is where a group is joined. Biotin = O=C1N[C@H]2[C@H](CS[C@H]2CCCCC(=O)*)N1

Legend:
[1] = target: T1, Peptide M (human PAR-4), unbiotinylated (Human); test: SPR, antibody captured
T1 peptide: ESGSTGGGDDSTPSILPAP

[2] = target: T2, Peptide K (human PAR-1), unbiotinylated (Human); test: SPR, antibody captured
T2 peptide: ATNATLDPRSFLLRNPND

[3] = target: T3, Peptide L (human PAR-3), unbiotinylated (Human); test: SPR, antibody captured
T3 peptide: DTNNLAKPTLPIKTFRGA

[4] = target: T4, Peptide B (human PAR-2), unbiotinylated (Human); test: SPR, antibody captured
T4 construct: also called Peptide B No Biotin
T4 peptide: SLIGKVDGTSHVTG
Protocol: Equilibrium dissociation constants (KD values) for antigen binding to selected purified PAR-2 antibodies were determined by surface kinetics using a real-time surface plasmon resonance biosensor assay. Antibody was captured on either a rabbit anti-mouse IgG polyclonal antibody (GE Healthcare, Piscataway, N.J.) surface or a goat anti-human IgG polyclonal antibody (Jackson Immuno Research Lab, West Grove, Pa.) surface created through direct amine chemical coupling to a BIACORE™ CM5 sensor chip to form a captured antibody surface. […] Antigen-antibody binding and dissociation were monitored in real time at room temperature. Kinetic analysis was performed to calculate KD and half-life of antigen/antibody complex dissociation (Table 10). For those antibodies where no T_{1/2} value is shown, steady state analysis was used to calculate the KD value. NB: no binding observed under current experimental conditions. ND: not determined.

[5] = target: T5, Peptide F (monkey PAR-2), N-terminal biotinylated (Monkey (Macaca mulatta), N-terminal biotin via G4S linker); test: SPR, peptide immobilized; SPR, biotinylated peptide on the chip, bivalent antibody in solution
T5 construct: also called Peptide F N-Term
T5 sequence (peptide, as listed by the source): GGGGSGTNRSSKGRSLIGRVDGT

[6] = target: T6, Peptide C (human PAR-2), N-terminal biotinylated (Human); test: SPR, peptide immobilized
T6 construct: also called Peptide C N-Term
T6 peptide: Biotin-GGGGSSLIGKV

full length mouse PAR-2 = target: T7, full length mouse PAR-2 (mouse, UniProt P55086 26-399); test: MSD cell binding
T7 construct: also called 293/D9/mPAR-2rec cells
T7 chain: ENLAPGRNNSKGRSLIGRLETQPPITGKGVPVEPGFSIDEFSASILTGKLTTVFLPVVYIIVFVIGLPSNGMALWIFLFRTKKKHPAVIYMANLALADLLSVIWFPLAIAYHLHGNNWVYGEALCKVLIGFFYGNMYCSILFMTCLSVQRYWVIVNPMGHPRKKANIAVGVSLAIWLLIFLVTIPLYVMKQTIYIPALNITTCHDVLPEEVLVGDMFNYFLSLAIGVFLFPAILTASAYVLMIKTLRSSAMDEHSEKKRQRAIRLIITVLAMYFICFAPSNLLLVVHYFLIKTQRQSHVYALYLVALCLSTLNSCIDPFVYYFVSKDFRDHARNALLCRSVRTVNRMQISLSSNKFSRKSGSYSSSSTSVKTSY
Protocol: (§1) HEK293 cells were transfected with an NF-κB-luciferase-IRES-eGFP reporter plasmid. […] A clonal cell line, named D9, having low background levels of luciferase activity and high levels of eGFP when induced with IL-1β was made by a series of successive sorts of cell populations using flow cytometry. The 293/D9 cell line was then separately transfected with human PAR-2 or mouse PAR-2 to create the stable cell lines 293/D9/h PAR-2rec and 293/D9/m PAR-2rec, respectively.
(§2) Cells were plated on MSD high-bind 96 well plates at a density of 4×10⁴ cells/well in PBS and incubated for one hour at room temperature. Cells were then blocked in PBS with 2% BSA and incubated at room temperature for one hour. Anti-PAR-2 antibodies (ranging from 100 nM to 0.098 nM) were serially diluted two-fold in PBS with 0.5% BSA and incubated with the cells for one hour at room temperature followed by washing in PBS with 0.5% BSA. Sulfo-tagged anti-human IgG antibody (MSD) at a concentration of 0.1 μg/ml was then added to the cell/antibody mixture and incubated at room temperature for an additional hour. After another wash, a 1× non-surfactant containing read buffer was added and electro-chemiluminescent signal was read on the MSD Sector Imager. Signal of antibody binding to 293/D9 cells was subtracted from signal to 293/D9/hPAR-2rec or 293/D9/mPAR-2rec cells. Subtracted data were analyzed using a sigmoidal dose-response model in GraphPad Prism and EC₅₀ and Bₘₐₓ values were reported (Table 18). EC₅₀ values are defined as the antibody concentration required to achieve 50% maximal binding (Bₘₐₓ) to cells.

full length human PAR-2 = target: T8, full length human PAR-2 (human, UniProt P55085 26-397); test: MSD cell binding
T8 construct: overexpressed on HEK293-derived 293/D9 cells; also called 293/D9/hPAR-2rec cells
T8 sequence (P55085 26-397 G138A limits assumed): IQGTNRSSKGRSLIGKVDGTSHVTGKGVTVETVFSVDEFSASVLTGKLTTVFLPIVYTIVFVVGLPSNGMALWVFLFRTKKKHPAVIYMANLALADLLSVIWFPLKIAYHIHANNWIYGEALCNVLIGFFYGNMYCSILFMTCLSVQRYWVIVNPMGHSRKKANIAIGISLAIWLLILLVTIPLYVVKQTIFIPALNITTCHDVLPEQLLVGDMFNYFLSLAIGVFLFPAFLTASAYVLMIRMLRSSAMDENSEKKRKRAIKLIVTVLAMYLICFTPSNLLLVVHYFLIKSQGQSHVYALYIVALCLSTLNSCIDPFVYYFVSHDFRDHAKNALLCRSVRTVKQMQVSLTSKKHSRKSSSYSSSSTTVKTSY
Protocol: as §1, §2

[7] = target: T9, Peptide A (human PAR-2), C-terminal biotinylated (Human, C-terminal biotin via G4S linker); test: SPR, peptide immobilized
T9 construct: also called Peptide A C-Term
Protocol: (§3) In another series of experiments, equilibrium dissociation constants (KD values) for purified antibody binding to selected biotinylated and unbiotinylated forms of PAR-2 peptides were determined by surface kinetics using a real-time surface plasmon resonance biosensor assay. Neutravidin (Pierce, Rockford, Ill.) was covalently coupled to the surface of a Biacore™ C1 chip or CM5 chip using amine coupling chemistry. Biotinylated (N-Term or C-Term) PAR-2 peptides (Peptides A and B) were immobilized on the surface via the high affinity binding interaction between biotin and the amine coupled Neutravidin.
(§4) In a first experiment using this format, varying concentrations (ranging from 5 to 100 μg/ml) of purified antibody were injected at a rate of 50 μl/min over a surface coated with immobilized peptide at low-density (<1RU) for 300 seconds. Antibody-peptide binding and dissociation was monitored in real time 25° C.

[8] = target: T10, Peptide B (human PAR-2), C-terminal biotinylated (Human, not fully specified); test: SPR, peptide immobilized
T10 construct: also called Peptide B C-Term
T10 peptide: SLIGKVDGTSHVTGGGGGS-biotin
Protocol: as §3, §4

[9] = target: T11, Peptide E (mouse PAR-2), N-terminal biotinylated (Mouse (Mus musculus), N-terminal biotin via G4S linker); test: SPR, peptide immobilized
T11 construct: also called Peptide E N-Term
T11 peptide: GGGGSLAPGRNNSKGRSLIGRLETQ

[10] = target: T12, Peptide B (human PAR-2), N-terminal biotinylated (Human); test: SPR, peptide immobilized
T12 construct: also called Peptide B N-Term
T12 peptide: Biotin-GGGGSSLIGKVDGTSHVTG

[11] = target: T13, Peptide G (rat PAR-2), N-terminal biotinylated (Rat (Rattus norvegicus), N-terminal biotin via G4S linker); test: SPR, peptide immobilized
T13 construct: also called Peptide G N-Term
T13 peptide: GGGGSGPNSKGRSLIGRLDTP

[12] = target: T14, Peptide A (human PAR-2), N-terminal biotinylated (Human, N-terminal biotin via G4S linker); test: SPR, peptide immobilized
T14 construct: also called Peptide A N-Term
T14 peptide: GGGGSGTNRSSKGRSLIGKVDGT

binding result [1]: no binding
binding result [2]: no binding
binding result [3]: no binding
binding result [4]: no binding
Kd [5]: 1.84 nM
T1/2 [5]: 2 min
binding result [6]: no binding
Bmax (full length mouse PAR-2): 13300 MSD Unit
EC50 (full length mouse PAR-2): 5.76 nM
Bmax (full length human PAR-2): 6550 MSD Unit
EC50 (full length human PAR-2): 9.72 nM
Kd [7]: 3.56 nM
T1/2 [7]: 3 min
binding result [8]: no binding
Kd [9]: 1.28 nM
T1/2 [9]: 7 min
binding result [10]: no binding
Kd [11]: 2.94 nM
T1/2 [11]: 2 min
Kd [12]: 1.52 nM
T1/2 [12]: 3 min
B1: H4H590N (antibody, human IgG4, V domains shown)
VH: EVQLVESGGGLVQPGRSLRLSCAASGFTFDDYAMHWVRQAPGKGLEWVSGITWNSGTMAYADSVKGRFTISRDNAKNSLYLQMNSLRAEDTALYYCAKENWAFDYWGQGTLVTVSS
VL: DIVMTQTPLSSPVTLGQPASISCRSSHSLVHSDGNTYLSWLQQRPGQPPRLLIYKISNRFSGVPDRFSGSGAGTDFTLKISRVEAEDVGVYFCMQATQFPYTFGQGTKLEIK
notes: cloned onto human IgG4; also called H1M590N variable regions
